PMC9959367, “Identification and Characterization of p300-Mediated Lysine Residues in Cardiac SERCA2a” (International Journal of Molecular Sciences, 2023)

Target: T1, phospholamban (PLN) (UniProt P26678 1-52)
T1 construct: phospholamban, overexpressed
T1 sequence (looked up): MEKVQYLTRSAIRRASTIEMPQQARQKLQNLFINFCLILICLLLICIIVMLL
Experiment: co-IP; IP experiments in overexpression systems, told in the discussion only, data not shown; which partner was precipitated is not told
Conditions: partners not purified

B1: acetylation-mimic mutant of K328 SERCA2a (K328Q) (natural protein, UniProt P16615-2 1-997, looked up)
chain: MENAHTKTVEEVLGHFGVNESTGLSLEQVKKLKERWGSNELPAEEGKTLLELVIEQFEDLLVRILLLAACISFVLAWFEEGEETITAFVEPFVILLILVANAIVGVWQERNAENAIEALKEYEPEMGKVYRQDRKSVQRIKAKDIVPGDIVEIAVGDKVPADIRLTSIKSTTLRVDQSILTGESVSVIKHTDPVPDPRAVNQDKKNMLFSGTNIAAGKAMGVVVATGVNTEIGKIRDEMVATEQERTPLQQKLDEFGEQLSKVISLICIAVWIINIGHFNDPVHGGSWIRGAIYYFKIAVALAVAAIPEGLPAVITTCLALGTRRMAQKNAIVRSLPSVETLGCTSVICSDKTGTLTTNQMSVCRMFILDRVEGDTCSLNEFTITGSTYAPIGEVHKDDKPVNCHQYDGLVELATICALCNDSALDYNEAKGVYEKVGEATETALTCLVEKMNVFDTELKGLSKIERANACNSVIKQLMKKEFTLEFSRDRKSMSVYCTPNKPSRTSMSKMFVKGAPEGVIDRCTHIRVGSTKVPMTSGVKQKIMSVIREWGSGSDTLRCLALATHDNPLRREEMHLEDSANFIKYETNLTFVGCVGMLDPPRIEVASSVKLCRQAGIRVIMITGDNKGTAVAICRRIGIFGQDEDVTSKAFTGREFDELNPSAQRDACLNARCFARVEPSHKSKIVEFLQSFDEITAMTGDGVNDAPALKKAEIGIAMGSGTAVAKTASEMVLADDNFSTIVAAVEEGRAIYNNMKQFIRYLISSNVGEVVCIFLTAALGFPEALIPVQLLWVNLVTDGLPATALGFNPPDLDIMNKPPRNPKEPLISGWLFFRYLAIGCYVGAATVGAAAWWFIAADGGPRVSFYQLSHFLQCKEDNPDFEGVDCAIFESPYPMTMALSVLVTIEMCNALNSLSENQSLLRMPPWENIWLVGSICLSMSLHFLILYVEPLPLIFQITPLNVTQWLMVLKISLPVILMDETLKFVARNYLEPAILE
notes: SERCA2a with lysine 328 exchanged for glutamine to mimic acetylation; The mutants were expressed from plasmids in HEK293 cells for the ATPase assays; also called K328Q SERCA2a
- fold change of affinity against wild-type SERCA2a: ~2.5 fold
